Six molecules from patent publication US20250382344A1, “Soluble GLP1/GIP/NPY2 Receptor Triple Agonists” (Boehringer Ingelheim International GmH, priority 2024, published 2025) can be followed below.

The target of one data set is T1, hGIPR (Homo sapiens, UniProt P48546).
T1 construct: expressed in transfected cells; host or cells: CHO CRE-luciferase reporter cells
T1 sequence (P48546 22-466): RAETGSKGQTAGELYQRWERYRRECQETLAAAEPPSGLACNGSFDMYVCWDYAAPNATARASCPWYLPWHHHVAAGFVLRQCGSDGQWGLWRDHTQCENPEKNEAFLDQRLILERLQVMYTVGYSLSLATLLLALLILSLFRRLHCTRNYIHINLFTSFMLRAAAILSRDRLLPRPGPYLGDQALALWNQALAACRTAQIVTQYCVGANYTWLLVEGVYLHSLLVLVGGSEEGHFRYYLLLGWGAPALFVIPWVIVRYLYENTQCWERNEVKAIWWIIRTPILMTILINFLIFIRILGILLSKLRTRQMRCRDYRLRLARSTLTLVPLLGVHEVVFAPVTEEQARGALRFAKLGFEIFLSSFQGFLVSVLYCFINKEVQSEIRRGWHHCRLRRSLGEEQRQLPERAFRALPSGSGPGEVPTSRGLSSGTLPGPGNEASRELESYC
The experiment in a line: hGIPR CreLuc assay in 0.5% and 100% plasma (CHO CRE-luciferase reporter cells). The class given is cell-based. The settings on record: 0.5% human plasma, read-out: hGIPR 0.5% hP.

The nature of data set [1]: Solubility in 0.1 M phosphate buffer at pH 7. The settings on record: 0.1 M phosphate buffer at pH 7, 10 mg/mL final peptide concentration, shaking 2 hours at room temperature, peptides as TFA-salts; measured sample pH 6.5-7.0. The class given is physicochemical.
In the next data set the target is T2, hGLP1R (Homo sapiens, UniProt P43220).
T2 construct: expressed in transfected cells; host or cells: HEK-293 CRE-luciferase reporter cells
The data set is described as follows: hGLP1R CreLuc assay in 0.5% and 100% plasma (HEK-293 CRE-luciferase reporter cells). Format: cell-based. Particulars: HEK-293 reporter cells.

A further data set relates to Normal NMRI Mice. The data set is described as follows: Effect on acute food intake in normal NMRI mice. Format: in vivo. The settings on record: male NMRI mice, single subcutaneous dose 100 nmol/kg, 24 hours food intake normalized to vehicle group. An outline of the steps:
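Male NMRI mice (n=8, ≥6 weeks), food locked 8 h before dark phase, given a single subcutaneous dose of peptide 1 h before lights-off. Food intake logged hourly over 24 h by automated HM2 monitoring; vehicle 50 mM phosphate pH 7.4 with 3.5% mannitol.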

Data set [2] can be described thus: Mouse PK after intravenous application. The class given is in vivo. Particulars: plasma, male NMRI mice, intravenous 30-60 nmol/kg, non-compartmental analysis. An outline of the steps:
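Male NMRI mice (30–40 g) dosed 30-60 nmol/kg by tail vein in 50 mM phosphate buffer pH 7.4/3.5% mannitol. Saphenous EDTA blood sampled from conscious animals up to 56 h; plasma peptide quantified by LC-MS. Parameters from non-compartmental analysis of individual profiles.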

Another data set has as its target T3, hNPY2R (Homo sapiens, UniProt P49146).
T3 construct: expressed in transfected cells; host or cells: HEK-293 CRE-luciferase reporter cells
T3 sequence (P49146 1-381): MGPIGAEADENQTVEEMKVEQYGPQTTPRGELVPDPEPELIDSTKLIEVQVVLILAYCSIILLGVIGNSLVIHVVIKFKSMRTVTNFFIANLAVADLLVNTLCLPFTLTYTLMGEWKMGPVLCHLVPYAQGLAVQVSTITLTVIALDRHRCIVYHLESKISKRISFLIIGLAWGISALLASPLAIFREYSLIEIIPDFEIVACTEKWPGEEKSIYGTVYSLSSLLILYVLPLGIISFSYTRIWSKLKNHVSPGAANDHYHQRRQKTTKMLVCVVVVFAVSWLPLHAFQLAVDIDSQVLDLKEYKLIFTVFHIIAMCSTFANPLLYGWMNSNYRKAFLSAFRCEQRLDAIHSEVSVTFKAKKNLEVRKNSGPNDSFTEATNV
The data set is described as follows: hNPY2R CreLuc assay in 0.5% and 100% plasma (HEK-293 CRE-luciferase reporter cells). The class given is cell-based. The settings on record: 0.5% human plasma, HEK-293 reporter cells, read-out: hNPY2R 0.5% hP.

For data set [3], the target named is T4, human neuropeptide Y2 receptor (human, UniProt P49146 1-381).
T4 sequence (looked up): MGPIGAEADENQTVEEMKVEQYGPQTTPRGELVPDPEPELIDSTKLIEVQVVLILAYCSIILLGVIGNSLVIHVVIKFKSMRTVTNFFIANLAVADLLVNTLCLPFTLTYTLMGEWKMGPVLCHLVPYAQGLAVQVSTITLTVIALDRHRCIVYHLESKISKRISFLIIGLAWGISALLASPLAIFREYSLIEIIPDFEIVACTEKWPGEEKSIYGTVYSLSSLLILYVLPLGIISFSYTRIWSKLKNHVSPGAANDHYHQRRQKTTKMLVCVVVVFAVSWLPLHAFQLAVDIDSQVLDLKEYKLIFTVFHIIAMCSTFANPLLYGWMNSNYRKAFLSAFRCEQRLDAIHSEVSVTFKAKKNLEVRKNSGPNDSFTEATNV
The data set is described as follows: cell-based or functional assay.

The target of the next data set is T5, human GIP receptor (human, UniProt P48546 22-466).
T5 sequence (looked up): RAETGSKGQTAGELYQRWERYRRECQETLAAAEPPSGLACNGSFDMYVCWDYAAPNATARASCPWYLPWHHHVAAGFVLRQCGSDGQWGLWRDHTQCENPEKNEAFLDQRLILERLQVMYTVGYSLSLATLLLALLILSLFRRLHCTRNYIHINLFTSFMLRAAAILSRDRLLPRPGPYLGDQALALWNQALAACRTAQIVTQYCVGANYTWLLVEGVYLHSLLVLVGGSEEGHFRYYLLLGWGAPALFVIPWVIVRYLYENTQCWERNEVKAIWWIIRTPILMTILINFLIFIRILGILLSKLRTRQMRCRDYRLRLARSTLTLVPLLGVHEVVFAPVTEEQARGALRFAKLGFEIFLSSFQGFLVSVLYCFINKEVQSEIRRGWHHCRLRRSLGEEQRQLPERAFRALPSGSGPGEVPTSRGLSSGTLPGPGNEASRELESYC
The experiment in a line: cell-based or functional assay.

The next data set deals with human GLP-1 receptor (human, UniProt P43220 24-463). The experiment in a line: cell-based or functional assay.

Read-outs that look alike come from different tables or passages of the source. *1 amine or outer side, *2 acyl side, *3 side chain or, on linkers, in order; H or OH if unused. Where no end group is shown, it is not given here. Side-chain parts run from the residue outwards. [ ]: non-standard residue; d: D form. The star is where a group is joined. C18 diacid = O=C(O)CCCCCCCCCCCCCCCCC(=O)*; γGlu = O=C(O)[C@H](CCC(=O)[*:2])N[*:1]; εLys = N[C@@H](CCCCN[*:1])C(=O)[*:2]; Aib = CC(C)(N)C(=O)O

T2 sequence (P43220 24-463): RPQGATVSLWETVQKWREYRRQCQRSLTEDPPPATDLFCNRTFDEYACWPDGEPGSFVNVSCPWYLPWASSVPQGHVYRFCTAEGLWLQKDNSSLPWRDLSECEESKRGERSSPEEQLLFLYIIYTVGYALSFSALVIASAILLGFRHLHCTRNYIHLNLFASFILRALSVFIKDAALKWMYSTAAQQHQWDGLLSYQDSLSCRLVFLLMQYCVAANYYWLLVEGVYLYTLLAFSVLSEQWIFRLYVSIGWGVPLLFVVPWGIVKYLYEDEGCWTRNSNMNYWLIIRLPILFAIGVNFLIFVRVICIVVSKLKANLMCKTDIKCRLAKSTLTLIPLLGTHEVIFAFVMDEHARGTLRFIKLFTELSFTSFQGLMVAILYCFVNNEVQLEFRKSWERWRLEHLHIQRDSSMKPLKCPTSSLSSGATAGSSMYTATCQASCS

Turning to `CC[C@H](C)[C@H](NC(=O)[C@H](CC(C)C)NC(=O)[C@H](Cc1c[nH]cn1)NC(=O)[C@H](CCCNC(=N)N)NC(=O)[C@@H](NC(=O)[C@H](Cc1ccccc1)NC(=O)[C@H](C)NC(=O)C(C)(C)NC(=O)[C@H](CCC(N)=O)NC(=O)[C@H](C)NC(=O)[C@H](CCC(N)=O)NC(=O)[C@H](CCCCN)NC(=O)[C@H](CCC(=O)O)NC(=O)[C@H](CC(C)C)NC(=O)C(C)(C)NC(=O)[C@@H](NC(=O)[C@H](CO)NC(=O)[C@H](Cc1ccc(O)cc1)NC(=O)[C@H](CC(=O)O)NC(=O)[C@H](CO)NC(=O)[C@@H](NC(=O)[C@H](Cc1ccccc1)NC(=O)[C@@H](NC(=O)CNC(=O)[C@H](CCC(=O)O)NC(=O)C(C)(C)NC(=O)[C@@H](N)Cc1ccc(O)cc1)[C@@H](C)O)[C@@H](C)O)[C@@H](C)CC)C(C)C)C(=O)N[C@@H](CC(N)=O)C(=O)N[C@@H](CCCCNC(=O)[C@@H](N)CCCCNC(=O)CC[C@H](NC(=O)CC[C@H](NC(=O)CC[C@H](NC(=O)CC[C@H](NC(=O)CC[C@H](NC(=O)CC[C@H](NC(=O)CCCCCCCCCCCCCCCCC(=O)O)C(=O)O)C(=O)O)C(=O)O)C(=O)O)C(=O)O)C(=O)O)C(=O)NC(C)(C)C(=O)N[C@H](C(=O)N[C@@H](CCCNC(=N)N)C(=O)N[C@@H](CCC(N)=O)C(=O)N[C@@H](CCCNC(=N)N)C(=O)N[C@@H](Cc1ccc(O)cc1)C(N)=O)[C@@H](C)O` [Compound 92, Y-Aib-E-G-T-F-T-S-D-Y-S-I-Aib-L-E-K-Q-A-Q-Aib-A-F-V-R-H-L-I-N-K(1,3)-Aib-T-R-Q-R-Y-NH2.C18DA-gGlu-gGlu-gGlu-gGlu-gGlu-gGlu-eLys(1,2)], the EC50 amounted to 0.2 nM on hGIPR; 0.4 nM on hGLP1R (0.5% human plasma, read-out: hGLP1R 0.5% hP); 2 nM at hGLP1R (100% human plasma, read-out: hGLP1R 100% hP); 9.9 nM at hNPY2R. Further, in data set [1], the solubility at 2 h stood at 6700 µg/mL. Besides, the “Acute Food Intake 24 hours 100 nmol/kg [% CTL]” value with Normal NMRI Mice is recorded as 58 % CTL. Besides, the MRT in data set [2] is 7.5 h.

B1: Compound 171 (peptide)
peptide: YXEGTFTSDYSIXLERQAQXAFVRHLINKXTRQRY
modifications: Aib at positions 2, 13, 20 and 30; Lys 29 epsilon-amino group carries C20DA-gGlu-gGlu-gGlu-gGlu-gGlu-gGlu-eLys; C-terminal amide
In the case of B1, in data set [3], the “EC50, CreLuc luciferase reporter assay, hNPY2R 0.5% hP” value (“EC50 … hNPY2R 0.5% hP” below) worked out at 9.9 nM and the “EC50, CreLuc luciferase reporter assay, hNPY2R 100% hP” value (shortened to “EC50 … hNPY2R 100% hP”) worked out at 95.3 nM. In addition, the “EC50, CreLuc luciferase reporter assay, hGIPR 0.5% hP” value (shortened to “EC50 … hGIPR 0.5% hP”) in the data set with human GIP receptor was found to be 0.4 nM.

B2: Compound 173 (peptide)
peptide: YXEGTFTSDYSIXLDKQAQXAFVRHLLNKXTRQRY
modifications: Aib at positions 2, 13, 20 and 30; Lys 29 epsilon-amino group carries C18DA-gGlu-gGlu-gGlu-gGlu-gGlu-gGlu-eLys; C-terminal amide
As to B2, in data set [3], the “EC50 … hNPY2R 0.5% hP” value was 7.3 nM and the “EC50 … hNPY2R 100% hP” value was 55.5 nM. In the data set with human GIP receptor, the “EC50 … hGIPR 0.5% hP” value came to 0.7 nM and the “EC50, CreLuc luciferase reporter assay, hGIPR 100% hP” value is 20.1 nM. Also, the “EC50, CreLuc luciferase reporter assay, hGLP1R 0.5% hP” value in the data set with human GLP-1 receptor stood at 0.2 nM.

B3: Compound 172 (peptide)
peptide: YXEGTFTSDYSIXLEKQAQXAFVRHLINKWTRQRY
modifications: Aib at positions 2, 13 and 20; Lys 29 epsilon-amino group carries C18DA-gGlu-gGlu-gGlu-gGlu-gGlu-gGlu-eLys; C-terminal amide
In the case of B3, in data set [3], the “EC50 … hNPY2R 0.5% hP” value came to 52.7 nM and the “EC50 … hNPY2R 100% hP” value turned out to be 136 nM. In the data set with human GIP receptor, the “EC50 … hGIPR 0.5% hP” value stood at 1.7 nM and the “EC50, CreLuc luciferase reporter assay, hGIPR 100% hP” value amounted to 19.8 nM.

B4: Compound 176 (peptide)
peptide: YXEGTFTSDYSIXLEKQAQXAFVRHLINKXTRQRY
modifications: Aib at positions 2, 13, 20 and 30; Lys 29 epsilon-amino group carries C20DA-gGlu-gGlu-gGlu-gGlu-gGlu; C-terminal amide
With B4, the “EC50 … hNPY2R 100% hP” value in [3] came out at 457 nM.

B5: Compound 174 (peptide)
peptide: Y[Aib]EGTFTSDYSI[Aib]LEKQAQ[Aib]AFVRHLINK([γGlu-εLys-γGlu-γGlu-γGlu-γGlu-γGlu-C18 diacid])[Aib]TRQRY-NH2
modifications: also: TFA salt
For B5, the “EC50, CreLuc luciferase reporter assay, hGLP1R 0.5% hP” value with human GLP-1 receptor is 1 nM.
